Patent publication US20240317847A1 (Bayer, published 2024)

T1: human IL-11 (human, UniProt P20809 22-199)
T1 sequence: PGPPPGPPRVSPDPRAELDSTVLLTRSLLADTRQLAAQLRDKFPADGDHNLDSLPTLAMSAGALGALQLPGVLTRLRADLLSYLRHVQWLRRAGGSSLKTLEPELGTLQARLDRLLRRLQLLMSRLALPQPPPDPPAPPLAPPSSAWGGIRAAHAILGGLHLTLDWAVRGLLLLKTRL

T2: murine IL-11 (mouse, UniProt P47873 22-199)
T2 sequence: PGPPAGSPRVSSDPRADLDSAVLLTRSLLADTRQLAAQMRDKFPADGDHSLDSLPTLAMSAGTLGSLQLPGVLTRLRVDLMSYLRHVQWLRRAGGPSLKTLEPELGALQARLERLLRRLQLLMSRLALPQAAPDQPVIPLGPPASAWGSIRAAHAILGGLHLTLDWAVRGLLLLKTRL

T3: cynomolgus IL-11 (cynomolgus, UniProt P20808 22-199)
T3 construct: Invigate, lot #C290621-19; also called cIL11; cynoL-11
T3 sequence: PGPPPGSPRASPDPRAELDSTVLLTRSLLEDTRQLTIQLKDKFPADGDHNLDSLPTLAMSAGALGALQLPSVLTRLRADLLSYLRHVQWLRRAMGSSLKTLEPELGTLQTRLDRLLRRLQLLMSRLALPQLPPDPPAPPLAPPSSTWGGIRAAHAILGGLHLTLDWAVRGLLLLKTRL

T4: rat IL-11 (rat, UniProt Q99MF5 22-199)
T4 construct: Invigate, e.g. lot #C301019-19; also called rIL11
T4 sequence: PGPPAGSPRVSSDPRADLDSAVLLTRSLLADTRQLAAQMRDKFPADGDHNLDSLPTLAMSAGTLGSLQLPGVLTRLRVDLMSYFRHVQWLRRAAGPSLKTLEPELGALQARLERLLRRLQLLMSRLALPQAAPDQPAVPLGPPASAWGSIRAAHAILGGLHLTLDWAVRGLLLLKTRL


How the values were obtained:
human IL-11 [1] = target: T1, human IL-11; assay: cell-based or functional assay
murine IL-11 [2] = target: T2, murine IL-11; assay: cell-based or functional assay
human IL-11 [3] = target: T1, human IL-11; assay: SPR, antibody captured, IL-11 as analyte
murine IL-11 [4] = target: T2, murine IL-11; assay: SPR, antibody captured, IL-11 as analyte
cynomolgus IL-11 = target: T3, cynomolgus IL-11; assay: SPR, antibody captured, IL-11 as analyte
rat IL-11 = target: T4, rat IL-11; assay: SPR, antibody captured, IL-11 as analyte

| Binder | RGA Efficacy (%) (human IL-11 [1]) | RGA IC50 (human IL-11 [1]) | RGA Efficacy (%) (murine IL-11 [2]) | RGA IC50 (murine IL-11 [2]) | Kd (human IL-11 [3]) | Kd (murine IL-11 [4]) | Kd (cynomolgus IL-11) | Kd (rat IL-11) |
| --- | --- | --- | --- | --- | --- | --- | --- | --- |
| TPP-29383 (antibody, human IgG1, V domains shown) VH: EVQLLESGGGLVQPGGSLRLSCAASGFTFSSYGMHWVRQAPGKGLEWVAVISYDGSYKYYADSVKGRFTISRDNSKNTLYLQMNSLRAEDTAVYYCAAGVPDYWGQGTLVTVSS VL: QSVLTQPPSASGTPGQRVTISCSGSSSNIGSDLDVHWYQQLPGTAPKLLIYSNEERPSGVPDRFSGSKSGTSASLAISGLRSEDEADYYCAAWDPSLYGPVFGGGTKLTVL | 86% | 1.6 nM | 94.2% | 0.57 nM | 1.1 nM | 0.62 nM | 1.3 nM | 0.31 nM |
| TPP-29392 (antibody, human IgG1, V domains shown) VH: EVQLLESGGGLVQPGGSLRLSCAASGFTFSSYGMHWVRQAPGKGLEWVAVISYDGSYKYYADSVKGRFTISRDNSKNTLYLQMNSLRAEDTAVYYCAAGVPDYWGQGTLVTVSS VL: QSVLTQPPSASGTPGQRVTISCSGSSSNIWSDYDVHWYQQLPGTAPKLLIYSNEERPSGVPDRFSGSKSGTSASLAISGLRSEDEADYYCAAWDSSLSGPVFGGGTKLTVL | 80.2% | 1.2 nM | 89.3% | – | 0.92 nM | 1.1 nM | 0.85 nM | 0.95 nM |
| TPP-29384 (antibody, human IgG1, V domains shown) VH: EVQLLESGGGLVQPGGSLRLSCAASGFTFSSYGMHWVRQAPGKGLEWVAVISYDGSYKYYADSVKGRFTISRDNSKNTLYLQMNSLRAEDTAVYYCAAGVPDYWGQGTLVTVSS VL: QSVLTQPPSASGTPGQRVTISCSGSSSNIGSGYDVHWYQQLPGTAPKLLIYSNEERPSGVPDRFSGSKSGTSASLAISGLRSEDEADYYCAAWDPSLSGPVFGGGTKLTVL | 81.9% | 2.8 nM | 97.2% | 0.33 nM | 0.98 nM | 0.3 nM | 0.86 nM | 0.18 nM |
| TPP-29403 (antibody, human IgG1, V domains shown) VH: EVQLLESGGGLVQPGGSLRLSCAASGFTFSSYGGHWVRQAPGKGLEWVALISYDGSYKYYADSVKGRFTISRDNSKNTLYLQMNSLRAEDTAVYYCAAGVPDYWGQGTLVTVSS VL: not shown | 82.4% | 1.7 nM | 94.3% | 0.27 nM | 0.77 nM | 0.18 nM | 0.26 nM | 0.11 nM |
| TPP-29401 (antibody, human IgG1, V domains shown) VH: EVQLLESGGGLVQPGGSLRLSCAASGFTFSSYGGHWVRQAPGKGLEWVAVISYDGSYKYYADSVKGRFTISRDNSKNTLYLQMNSLRAEDTAVYYCAAGVPDYWGQGTLVTVSS VL: QSVLTQPPSASGTPGQRVTISCSGSSSNIGSYYDVHWYQQLPGTAPKLLIYSNEERPSGVPDRFSGSKSGTSASLAISGLRSEDEADYYCAAWDDSLSGPVFGGGTKLTVL | 83.3% | 1.3 nM | 96.9% | 0.15 nM | 0.69 nM | 0.11 nM | 0.23 nM | 0.058 nM |
| TPP-29394 (antibody, human IgG1, V domains shown) VH: EVQLLESGGGLVQPGGSLRLSCAASGFTFSSYGMHWVRQAPGKGLEWVAVISYDGSYKYYADSVKGRFTISRDNSKNTLYLQMNSLRAEDTAVYYCAAGVPDYWGQGTLVTVSS VL: QSVLTQPPSASGTPGQRVTISCSGSSSNIGSDYDVHWYQQLPGTAPKLLIYSNNERPSGVPDRFSGSKSGTSASLAISGLRSEDEADYYCAAWDFSLYGPVFGGGTKLTVL | 89.8% | 1.7 nM | 93.9% | 0.48 nM | 1.2 nM | 0.65 nM | 0.67 nM | 0.37 nM |
| TPP-29396 (antibody, human IgG1, V domains shown) VH: EVQLLESGGGLVQPGGSLRLSCAASGFTFSSYGMHWVRQAPGKGLEWVAVISYDGSYKYYADSVKGRFTISRDNSKNTLYLQMNSLRAEDTAVYYCAAGVPDYWGQGTLVTVSS VL: QSVLTQPPSASGTPGQRVTISCSGSSSNIWSDYDVHWYQQLPGTAPKLLIYSNEERPSGVPDRFSGSKSGTSASLAISGLRSEDEADYYCAAWDFSLYGPVFGGGTKLTVL | 78.9% | 0.65 nM | 96.1% | 0.39 nM | 0.78 nM | 0.7 nM | 0.92 nM | 0.44 nM |
| TPP-29393 (antibody, human IgG1, V domains shown) VH: EVQLLESGGGLVQPGGSLRLSCAASGFTFSSYGMHWVRQAPGKGLEWVAVISYDGSYKYYADSVKGRFTISRDNSKNTLYLQMNSLRAEDTAVYYCAAGVPDYWGQGTLVTVSS VL: QSVLTQPPSASGTPGQRVTISCSGSSSNIGSDLDVHWYQQLPGTAPKLLIYSNEERPSGVPDRFSGSKSGTSASLAISGLRSEDEADYYCAAWDDSLYGPVFGGGTKLTVL | 87.3% | 0.61 nM | 96.2% | 0.24 nM | 0.66 nM | 0.39 nM | 0.72 nM | 0.18 nM |

Now those with a lower Kd (human IL-11 [3]), led by results:

| RGA Efficacy (%) (human IL-11 [1]) | RGA IC50 (human IL-11 [1]) | RGA Efficacy (%) (murine IL-11 [2]) | RGA IC50 (murine IL-11 [2]) | Kd (human IL-11 [3]) | Kd (murine IL-11 [4]) | Kd (cynomolgus IL-11) | Kd (rat IL-11) | Binder |
| --- | --- | --- | --- | --- | --- | --- | --- | --- |
| 87.3% | 0.84 nM | 97.4% | 0.29 nM | 0.23 nM | 0.12 nM | 0.91 nM | 0.083 nM | TPP-29389 (antibody, human IgG1, V domains shown) VH: EVQLLESGGGLVQPGGSLRLSCAASGFTFSSYGMHWVRQAPGKGLEWVAVISYDGSYKYYADSVKGRFTISRDNSKNTLYLQMNSLRAEDTAVYYCAAGVPDYWGQGTLVTVSS VL: QSVLTQPPSASGTPGQRVTISCSGSSSNIGSYYDVHWYQQLPGTAPKLLIYSNEERPSGVPDRFSGSKSGTSASLAISGLRSEDEADYYCAAWDPSLYGPVFGGGTKLTVL |
| 71% | 0.53 nM | 93.8% | 0.31 nM | 0.35 nM | 0.11 nM | 0.8 nM | 0.057 nM | TPP-29397 (antibody, human IgG1, V domains shown) VH: EVQLLESGGGLVQPGGSLRLSCAASGFTFSSYGMHWVRQAPGKGLEWVAVISYDGSYKYYADSVKGRFTISRDNSKNTLYLQMNSLRAEDTAVYYCAAGVPDYWGQGTLVTVSS VL: QSVLTQPPSASGTPGQRVTISCSGSSSNIWSGYDVHWYQQLPGTAPKLLIYSNEERPSGVPDRFSGSKSGTSASLAISGLRSEDEADYYCAAWDSSLYGPVFGGGTKLTVL |
| 59.6% | 0.46 nM | 87.3% | – | 0.5 nM | 0.96 nM | 0.35 nM | 0.75 nM | TPP-29400 (antibody, human IgG1, V domains shown) VH: EVQLLESGGGLVQPGGSLRLSCAASGFTFSSYGGHWVRQAPGKGLEWVALISYDGSYKYYADSVKGRFTISRDNSKNTLYLQMNSLRAEDTAVYYCAAGVPDYWGQGTLVTVSS VL: QSVLTQPPSASGTPGQRVTISCSGSSSNIGSDYDVHWYQQLPGTAPKLLIYSNNERPSGVPDRFSGSKSGTSASLAISGLRSEDEADYYCAAWDFSLSGPVFGGGTKLTVL |
| 80.7% | 0.53 nM | 95.5% | 0.19 nM | 0.19 nM | 0.045 nM | 0.32 nM | 0.018 nM | TPP-29402 (antibody, human IgG1, V domains shown) VH: EVQLLESGGGLVQPGGSLRLSCAASGFTFSSYGGHWVRQAPGKGLEWVALISYDGSYKYYADSVKGRFTISRDNSKNTLYLQMNSLRAEDTAVYYCAAGVPDYWGQGTLVTVSS VL: QSVLTQPPSASGTPGQRVTISCSGSSSNIGSGLDVHWYQQLPGTAPKLLIYSNEERPSGVPDRFSGSKSGTSASLAISGLRSEDEADYYCAAWDSSLYGPVFGGGTKLTVL |
| 70.2% | 0.73 nM | 90% | – | 0.56 nM | 0.93 nM | 0.57 nM | 0.53 nM | TPP-29399 (antibody, human IgG1, V domains shown) VH: EVQLLESGGGLVQPGGSLRLSCAASGFTFSSYGMHWVRQAPGKGLEWVAVISYDGSYKYYADSVKGRFTISRDNSKNTLYLQMNSLRAEDTAVYYCAAGVPDYWGQGTLVTVSS VL: QSVLTQPPSASGTPGQRVTISCSGSSSNIGSDYDVHWYQQLPGTAPKLLIYSNNERPSGVPDRFSGSKSGTSASLAISGLRSEDEADYYCAAWDSSLSGPVFGGGTKLTVL |
